Results reported in US20070014720A1.

Tests used:
human CD20 (human) [1] = biological target: human CD20 (human) (UniProt P11836); test: cell-based or functional assay
human CD20 (human) [2] = biological target: human CD20 (human) (UniProt P11836); test: FACS KD on SB cells expressing CD20 (GMF against mAb concentration, nonlinear fit)

Sequence of human CD20 (human) (P11836 whole entry): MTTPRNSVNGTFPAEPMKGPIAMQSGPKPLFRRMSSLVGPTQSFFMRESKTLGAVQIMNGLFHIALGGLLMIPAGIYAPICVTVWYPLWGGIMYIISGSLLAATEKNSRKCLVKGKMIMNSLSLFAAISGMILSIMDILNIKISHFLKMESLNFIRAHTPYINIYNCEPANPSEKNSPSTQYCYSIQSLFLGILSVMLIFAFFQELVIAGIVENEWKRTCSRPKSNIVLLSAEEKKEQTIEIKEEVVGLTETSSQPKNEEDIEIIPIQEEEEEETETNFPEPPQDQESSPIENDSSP

| % Lysis Daudi 0.001 µg/ml ADCC (human CD20 (human) [1]) [%] | % Lysis Daudi 1 µg/ml ADCC (human CD20 (human) [1]) [%] | % Lysis Raji 0.001 µg/ml ADCC (human CD20 (human) [1]) [%] | % Lysis Raji 1 µg/ml ADCC (human CD20 (human) [1]) [%] | % Lysis Ramos 0.001 µg/ml ADCC (human CD20 (human) [1]) [%] | % Lysis Ramos 1 µg/ml ADCC (human CD20 (human) [1]) [%] | EC50 µg/ml Daudi CDC (human CD20 (human) [1]) [µg/mL] | EC50 µg/ml Raji CDC (human CD20 (human) [1]) [µg/mL] | EC50 µg/ml Ramos Apoptosis Alamar Blue (human CD20 (human) [1]) [µg/mL] | EC50 µg/ml Ramos Apoptosis Annexin V (human CD20 (human) [1]) [µg/mL] | EC50 µg/ml Ramos Apoptosis Cell Titer Glo (human CD20 (human) [1]) [µg/mL] | EC50 µg/ml Ramos Apoptosis WST-1 (human CD20 (human) [1]) [µg/mL] | EC50 µg/ml Ramos CDC (human CD20 (human) [1]) [µg/mL] | Kd (human CD20 (human) [2]) [nM] | Substance |
| --- | --- | --- | --- | --- | --- | --- | --- | --- | --- | --- | --- | --- | --- | --- |
| 33 | 95 | 16 | 62 | 5 | 78 | 1.56 | 0.31 | 0.222 | 2.59 | 0.576 | 0.0326 | 0.43 | 8.1 | Rituxan (Rituximab, Genentech Inc.) (antibody) |
| – | – | – | – | – | – | – | – | – | – | – | – | – | 34.1 | B1 antibody (Beckman Coulter, Miami, Fla.) |
